According to the Human Domainome abundance scans (Beltran et al. 2025):
± gives the uncertainty stated by the source.

B1: Zinc finger homeobox protein 4, residues 2562 to 2617; numbered along this chain, Q86UP3 (parent)
chain: RLRTTITPEQLEILYEKYLLDSNPTRKMLDHIAREVGLKKRVVQVWFQNTRARERK

Variants of: B1
Experiment: abundance fitness (aPCA) (normalised: wild type 0, dead -1); higher = more abundant; growth selection in yeast, the domain comes from the species named
Conditions: Homo sapiens
For RLRTTIKPEQLEILYEKYLLDSNPTRKMLDHIAREVGLKKRVVQVWFQNTRARERK [T7K], the abundance fitness was -0.55 ± 0.26. Work on RLRTTIQPEQLEILYEKYLLDSNPTRKMLDHIAREVGLKKRVVQVWFQNTRARERK [T7Q] yielded an abundance fitness of -0.295 ± 0.082. Work on RLRTTIEPEQLEILYEKYLLDSNPTRKMLDHIAREVGLKKRVVQVWFQNTRARERK [T7E] yielded an abundance fitness of 0.259 ± 0.14. RLRTTILPEQLEILYEKYLLDSNPTRKMLDHIAREVGLKKRVVQVWFQNTRARERK [T7L] showed an abundance fitness of -0.206 ± 0.12. Variant RLRTTIYPEQLEILYEKYLLDSNPTRKMLDHIAREVGLKKRVVQVWFQNTRARERK [T7Y] has an abundance fitness of -0.436 ± 0.09. RLRTTIVPEQLEILYEKYLLDSNPTRKMLDHIAREVGLKKRVVQVWFQNTRARERK [T7V] showed an abundance fitness of -0.196 ± 0.11. In the case of RLRTTICPEQLEILYEKYLLDSNPTRKMLDHIAREVGLKKRVVQVWFQNTRARERK [T7C], the abundance fitness is reported as -0.258 ± 0.3. RLRTTISPEQLEILYEKYLLDSNPTRKMLDHIAREVGLKKRVVQVWFQNTRARERK [T7S] gave an abundance fitness of -0.111 ± 0.13. Variant RLRTTIRPEQLEILYEKYLLDSNPTRKMLDHIAREVGLKKRVVQVWFQNTRARERK [T7R] has an abundance fitness of -0.449 ± 0.07. Variant RLRTTIIPEQLEILYEKYLLDSNPTRKMLDHIAREVGLKKRVVQVWFQNTRARERK [T7I] has an abundance fitness of -0.756 ± 0.43. RLRTTIWPEQLEILYEKYLLDSNPTRKMLDHIAREVGLKKRVVQVWFQNTRARERK [T7W] showed an abundance fitness of -0.708 ± 0.24. RLRTTIGPEQLEILYEKYLLDSNPTRKMLDHIAREVGLKKRVVQVWFQNTRARERK [T7G] showed an abundance fitness of -0.155 ± 0.066. In the case of RLRTTINPEQLEILYEKYLLDSNPTRKMLDHIAREVGLKKRVVQVWFQNTRARERK [T7N], the abundance fitness is reported as -0.238 ± 0.42. Work on RLRTTIPPEQLEILYEKYLLDSNPTRKMLDHIAREVGLKKRVVQVWFQNTRARERK [T7P] yielded an abundance fitness of -0.165 ± 0.2. For RLRTTIMPEQLEILYEKYLLDSNPTRKMLDHIAREVGLKKRVVQVWFQNTRARERK [T7M], the abundance fitness was -0.321 ± 0.14. Work on RLRTTNTPEQLEILYEKYLLDSNPTRKMLDHIAREVGLKKRVVQVWFQNTRARERK [I6N] yielded an abundance fitness of -0.708 ± 0.32. RLRTTVTPEQLEILYEKYLLDSNPTRKMLDHIAREVGLKKRVVQVWFQNTRARERK [I6V] gave an abundance fitness of -0.248 ± 0.081. With RLRTTQTPEQLEILYEKYLLDSNPTRKMLDHIAREVGLKKRVVQVWFQNTRARERK [I6Q] the abundance fitness was -0.761 ± 0.14. Work on RLRTTYTPEQLEILYEKYLLDSNPTRKMLDHIAREVGLKKRVVQVWFQNTRARERK [I6Y] yielded an abundance fitness of 0.06 ± 0.089. Variant RLRTTATPEQLEILYEKYLLDSNPTRKMLDHIAREVGLKKRVVQVWFQNTRARERK [I6A] has an abundance fitness of -0.266 ± 0.099. Variant RLRTTTTPEQLEILYEKYLLDSNPTRKMLDHIAREVGLKKRVVQVWFQNTRARERK [I6T] has an abundance fitness of -0.584 ± 0.19. Work on RLRTTDTPEQLEILYEKYLLDSNPTRKMLDHIAREVGLKKRVVQVWFQNTRARERK [I6D] yielded an abundance fitness of -0.759 ± 0.13. For RLRTTPTPEQLEILYEKYLLDSNPTRKMLDHIAREVGLKKRVVQVWFQNTRARERK [I6P], the abundance fitness was -0.056 ± 0.074. RLRTTSTPEQLEILYEKYLLDSNPTRKMLDHIAREVGLKKRVVQVWFQNTRARERK [I6S] gave an abundance fitness of -0.652 ± 0.06. Variant RLRTTMTPEQLEILYEKYLLDSNPTRKMLDHIAREVGLKKRVVQVWFQNTRARERK [I6M] has an abundance fitness of 0.144 ± 0.14. RLRTTGTPEQLEILYEKYLLDSNPTRKMLDHIAREVGLKKRVVQVWFQNTRARERK [I6G] showed an abundance fitness of -0.264 ± 0.049. RLRTTLTPEQLEILYEKYLLDSNPTRKMLDHIAREVGLKKRVVQVWFQNTRARERK [I6L] showed an abundance fitness of -0.196 ± 0.07. With RLRTTWTPEQLEILYEKYLLDSNPTRKMLDHIAREVGLKKRVVQVWFQNTRARERK [I6W] the abundance fitness was -0.465 ± 0.072. For RLRTTKTPEQLEILYEKYLLDSNPTRKMLDHIAREVGLKKRVVQVWFQNTRARERK [I6K], the abundance fitness was -0.852 ± 0.37. RLRTTCTPEQLEILYEKYLLDSNPTRKMLDHIAREVGLKKRVVQVWFQNTRARERK [I6C] showed an abundance fitness of -0.565 ± 0.1. RLRTTHTPEQLEILYEKYLLDSNPTRKMLDHIAREVGLKKRVVQVWFQNTRARERK [I6H] showed an abundance fitness of -0.202 ± 0.29. With RLRTTRTPEQLEILYEKYLLDSNPTRKMLDHIAREVGLKKRVVQVWFQNTRARERK [I6R] the abundance fitness was -0.983 ± 0.076. RLRTTETPEQLEILYEKYLLDSNPTRKMLDHIAREVGLKKRVVQVWFQNTRARERK [I6E] showed an abundance fitness of -0.477 ± 0.14. For RLWTTITPEQLEILYEKYLLDSNPTRKMLDHIAREVGLKKRVVQVWFQNTRARERK [R3W], the abundance fitness was -0.156 ± 0.056. For RLVTTITPEQLEILYEKYLLDSNPTRKMLDHIAREVGLKKRVVQVWFQNTRARERK [R3V], the abundance fitness was 0.132 ± 0.067. RLQTTITPEQLEILYEKYLLDSNPTRKMLDHIAREVGLKKRVVQVWFQNTRARERK [R3Q] gave an abundance fitness of 0.424 ± 0.11. In the case of RLKTTITPEQLEILYEKYLLDSNPTRKMLDHIAREVGLKKRVVQVWFQNTRARERK [R3K], the abundance fitness is reported as 0.288 ± 0.11. For RLTTTITPEQLEILYEKYLLDSNPTRKMLDHIAREVGLKKRVVQVWFQNTRARERK [R3T], the abundance fitness was 0.359 ± 0.089. RLMTTITPEQLEILYEKYLLDSNPTRKMLDHIAREVGLKKRVVQVWFQNTRARERK [R3M] gave an abundance fitness of 0.182 ± 0.072. In the case of RLETTITPEQLEILYEKYLLDSNPTRKMLDHIAREVGLKKRVVQVWFQNTRARERK [R3E], the abundance fitness is reported as 0.207 ± 0.1. For RLPTTITPEQLEILYEKYLLDSNPTRKMLDHIAREVGLKKRVVQVWFQNTRARERK [R3P], the abundance fitness was -0.004 ± 0.11. RLFTTITPEQLEILYEKYLLDSNPTRKMLDHIAREVGLKKRVVQVWFQNTRARERK [R3F] gave an abundance fitness of -0.02 ± 0.14. Variant RLNTTITPEQLEILYEKYLLDSNPTRKMLDHIAREVGLKKRVVQVWFQNTRARERK [R3N] has an abundance fitness of 0.829 ± 0.18. Work on RLLTTITPEQLEILYEKYLLDSNPTRKMLDHIAREVGLKKRVVQVWFQNTRARERK [R3L] yielded an abundance fitness of -0.008 ± 0.072. In the case of RLITTITPEQLEILYEKYLLDSNPTRKMLDHIAREVGLKKRVVQVWFQNTRARERK [R3I], the abundance fitness is reported as 0.319 ± 0.12. RLSTTITPEQLEILYEKYLLDSNPTRKMLDHIAREVGLKKRVVQVWFQNTRARERK [R3S] showed an abundance fitness of 0.301 ± 0.073. RLGTTITPEQLEILYEKYLLDSNPTRKMLDHIAREVGLKKRVVQVWFQNTRARERK [R3G] showed an abundance fitness of 0.194 ± 0.062.
